The record followed here is PMC10300128.

This assay deals with human angiotensin-converting enzyme 2 (residues 19–615), mouse IgG2a Fc fusion (human) (UniProt Q9BYF1). The assay is described as follows: BLI.
Sequence of UniProt Q9BYF1 (Q9BYF1 19-615): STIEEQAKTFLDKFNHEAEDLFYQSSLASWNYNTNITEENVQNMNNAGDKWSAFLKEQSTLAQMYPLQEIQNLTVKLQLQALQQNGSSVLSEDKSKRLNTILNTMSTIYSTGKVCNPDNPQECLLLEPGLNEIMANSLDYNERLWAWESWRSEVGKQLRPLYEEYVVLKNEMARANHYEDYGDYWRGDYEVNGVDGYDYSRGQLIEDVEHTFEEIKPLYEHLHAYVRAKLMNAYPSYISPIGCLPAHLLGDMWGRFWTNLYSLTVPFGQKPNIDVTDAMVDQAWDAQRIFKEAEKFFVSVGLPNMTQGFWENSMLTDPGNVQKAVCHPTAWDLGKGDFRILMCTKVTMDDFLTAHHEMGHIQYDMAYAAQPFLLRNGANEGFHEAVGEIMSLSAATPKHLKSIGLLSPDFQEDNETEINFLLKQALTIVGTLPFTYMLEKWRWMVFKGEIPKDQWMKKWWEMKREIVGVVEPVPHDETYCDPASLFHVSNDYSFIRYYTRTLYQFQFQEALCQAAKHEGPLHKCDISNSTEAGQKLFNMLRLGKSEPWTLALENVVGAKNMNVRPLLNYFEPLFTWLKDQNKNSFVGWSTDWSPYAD

RhGB07 spike trimer (natural protein) had a Kd of 253 nM.
